Measurements from patent US20100129870.

Experiments:
Assay in all cases: filter
[1] = biological target: ΔNS3 protein (NS3 protease domain) (Hepatitis C virus) (UniProt P26662); details: 100 nM protein; 4.9 at 50 nM; 0.1 without protein; Tris pH 7.8, Mg2+, Ca2+
[2] = biological target: bovine serum albumin (BSA) (Bos taurus) (UniProt P02769); details: 100 nM BSA
[3] = biological target: T1, myeloperoxidase (MPO) (Homo sapiens) (UniProt P05164); details: 100 nM MPO; 2.66 at 50 nM; 1.49 without protein
T1 sequence: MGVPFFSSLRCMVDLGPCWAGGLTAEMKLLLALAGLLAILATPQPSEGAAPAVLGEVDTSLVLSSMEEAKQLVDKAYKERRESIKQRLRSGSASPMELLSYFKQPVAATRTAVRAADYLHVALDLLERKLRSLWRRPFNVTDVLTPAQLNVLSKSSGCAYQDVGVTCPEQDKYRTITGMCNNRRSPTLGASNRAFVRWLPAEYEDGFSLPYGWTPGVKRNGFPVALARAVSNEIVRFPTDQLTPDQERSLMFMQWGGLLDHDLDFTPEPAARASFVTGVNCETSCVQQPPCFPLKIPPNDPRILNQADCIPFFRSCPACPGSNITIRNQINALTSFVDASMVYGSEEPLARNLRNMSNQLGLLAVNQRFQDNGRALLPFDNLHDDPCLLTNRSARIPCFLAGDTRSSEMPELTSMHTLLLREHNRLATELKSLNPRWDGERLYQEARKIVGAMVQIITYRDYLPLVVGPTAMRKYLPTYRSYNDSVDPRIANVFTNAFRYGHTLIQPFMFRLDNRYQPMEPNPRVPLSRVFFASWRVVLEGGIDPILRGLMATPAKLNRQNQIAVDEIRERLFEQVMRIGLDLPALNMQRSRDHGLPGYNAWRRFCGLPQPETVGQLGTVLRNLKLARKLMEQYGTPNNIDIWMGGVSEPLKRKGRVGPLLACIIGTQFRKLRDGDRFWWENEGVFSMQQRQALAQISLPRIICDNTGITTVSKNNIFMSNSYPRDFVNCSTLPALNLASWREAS

Sequence of bovine serum albumin (BSA) (Bos taurus) (P02769 25-607): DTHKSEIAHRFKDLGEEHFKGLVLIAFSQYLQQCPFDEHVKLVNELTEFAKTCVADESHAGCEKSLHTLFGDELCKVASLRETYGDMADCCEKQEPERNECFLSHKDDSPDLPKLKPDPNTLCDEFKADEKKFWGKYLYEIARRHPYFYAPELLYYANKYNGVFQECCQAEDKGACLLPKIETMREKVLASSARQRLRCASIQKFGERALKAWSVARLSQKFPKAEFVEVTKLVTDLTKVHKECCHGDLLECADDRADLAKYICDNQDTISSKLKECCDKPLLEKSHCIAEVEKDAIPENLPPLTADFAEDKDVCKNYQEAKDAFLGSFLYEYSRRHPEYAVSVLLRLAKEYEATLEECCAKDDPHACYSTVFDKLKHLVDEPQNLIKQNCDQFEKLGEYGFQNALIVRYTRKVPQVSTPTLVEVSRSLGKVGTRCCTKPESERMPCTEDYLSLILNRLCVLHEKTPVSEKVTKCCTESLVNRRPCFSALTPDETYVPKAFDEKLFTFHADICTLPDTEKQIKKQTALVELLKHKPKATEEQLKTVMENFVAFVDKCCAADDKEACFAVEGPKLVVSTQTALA

Sequence	binding signal [1]	binding signal [2]	binding signal [3]
GGGAGGUGGAACUGAAGGAGANNNNNNNNNNNNNNNNNNNNNNNNNNNNNNNNNNNNNNNNNNNNNNNNNNNNNNNACUUCGCAAUCGCUCUACGCA [RNA pool (generation zero)]	8.1 % bound	–	–
GGUAGAUACGAUGGANNNNNNNNNNNNNNNNNNNNNNNNNNNNNNCAUGACGCGCAGCCA [RNA pool 2]	–	1.86 % bound	1.7 % bound
